Results taken from the nanobody polyreactivity screen of Harvey et al. (2022).

Assay: yeast display, Sf9 membrane polyspecificity reagent, FACS + sequencing; frameworks hold sequencing errors
How it was run: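 After 36–48 hours of galactose induction, yeast (Saccharomyces cerevisiae BJ5465) displaying a synthetic nanobody library were stained at 4 °C for 1 hour with 10% biotinylated, detergent-solubilized Sf9 membrane reagent. Streptavidin microbeads enriched the stained cells before FACS sorting into low and high (top ~1%) gates on anti-HA and streptavidin fluorescence. Each clone's polyreactivity label reflects its gate of origin.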

Row | Sequence | polyreactivity (PSR sort gate)
1 | QVQLQESGRRPGAAGGSPRMSCAASGNIFWVAVMGRYRQAPGKERELVASIGFGCTTYYADSVKCRFTISRDNAKNTVYRQMISLKPEDTAVYYCAAPHYDWGELDYWGQGTQVPVSS | low polyreactivity
2 | QVQLQESGRRPRAAGGSPRMSCAASGNIIWVAVMCRYRQAPVKERELVASIGFGCTTYYADSVKCRFTISRDNAKNTVYLQMISLIPEDTAVYYCAAPHYDWGELDFWGQGTQVPVSS | low polyreactivity
3 | QVQLQESGSGLVQAGGSLRLSCAASGAIFPAYLMGWYRQAPGKERELVAGISYGSITYCADSVKGRFNISRDNAKNTVYLQMNSLKPEDTAVYYCAVWRPGVDEYYYWGQGTQVTVSS | low polyreactivity
4 | QVQLQESRGCLVQAGGSLRLTCAASGTISDSGLMGWYRQAPGKERELVAGISSGGITNYADSVKGRFTLSRDNAKNSVYLQMNSLKPEDTAVYWGQGTQVTVSS | low polyreactivity
5 | QVQLQESSGGLVQAGGSLRMSCAASGTIFHIHIMGRYRQAPGKEGEFVAAISYGTSTYYADSVKGRFTISRDNAKNTVYLQMNSQKPEDTAVYYCAVYDYLEVYFWYWGQGTQVTVSS | low polyreactivity
6 | QVQLQESSGGLVQAGVCLQQSCAASGSIFTQHPMGRYRQAPANEREFVAAINVGSNTYYADSVKGRITISRDNAKNTVSLQMNILTPEDTAVSYCAATSIRWSVGYFRRDYWGQGTQVTVSS | low polyreactivity
7 | QVQLQESVGGLVQAGGTQRLRCAASGNIFPTDRMGWYRQAPGKELEFVATISHGGSTNYADSVKGRFTISRDNAKNTVYLQMNSLKPEDTAVYYCAVWSLGRWRHYYWGQGTQVTVSS | low polyreactivity
8 | QVQLQESVGGLVQASGSIFHVPNMGWYRQAPGNERELVAGLAGGGNTNYADIVKGRFTISRDNAKNTVYLQRNSLDTAVYYCAVVGFGRGTHIYWGQGTQVTVSS | high polyreactivity
9 | QVQLQESVGGQVQAGGSLRLSCAASGTIFLYAFIGWYRQAPGKEPELVAAIDVGTTTNYADSVKGRFTISRDNAKNTVYLQMNSLKPEDTAVYYCAANLGYLDDLGYWGQGTQVTVSS | low polyreactivity
10 | QVQLQESVGGQVQAGVSLRLICAASCTISQEDWMGWYRQAPAKEREFVAAIGLGSNTNYADSLKGRFTISRDNAKNTVDLQMNSLKPEDTAVYYCAVSVWQYSDHVYRGQGTQVTVSS | low polyreactivity
11 | QVQLQQSVGGLVQAGGSLRLSCAASGNIFPTDRMGWYRQAPGKELEFVATISHGGRTNYADSVKGRFTISRDNATNTVYLQMNRLKPEDTAVYFCAVWSLGRWRHYYWGQGSQVTVSS | low polyreactivity
12 | QVQLQVSGGGLVQAGGSLRLSCAASGSIFLTSEMGWYRQAPGKERELVAAIATGTSTNYADSVKGRFTISRDNAKNTVYLQMNSLKPEDTAVYYCATYHYWGQGTQVTVSS | low polyreactivity
13 | QVQLRESGGGLVQAGGSLLSCAASATISYYREMGWYRQAPGNERELVAGIGVGTITYYADSVKGRFTISRDNAKNTVYLQMNSLKPEDTAVYYCAAHIEGNDSHAYWGQGTQVTVSS | low polyreactivity
14 | QVQLVASGGGLVQAGGSLRLSCAASGRNFRSYVMGWYRQAPGKERDLVATITRSGGGTTYADSVKGRFTISRDNAKNTVYLHMKSLKAEDTAVYYCNAERRYSWYSQGDYWGQGTQVTVSS | high polyreactivity
15 | QVQLVASGGGLVQSGGSLRLSCAASGFIFAYYAMGWYRQAPGTERELVAAISRGGRPYYADSVKGRFTISRDNAKNTVYFQMNSLKPEDTAVYYCAARRWRRYQSGGSYSGMDHWGQGTQVTVSS | high polyreactivity
16 | QVQLVDSAAALVQAGGSQRLTCAASGLIFYYSVMGSYRQAPGKERELVARISTSGGSTYYADSVKGRFTISRDNAKNTVYIQMNSLKPEDTAVYYCAARGYRQYGWDCYCGQGTQVTVSS | low polyreactivity
17 | QVQLVDSAGGLVQAGGSLRLSCDDSGRTFWYYTMGWYRQAPGKEREFLAAIRGSGTSTYYADSVKARYTISRDNAKNTVYFQMNSLKPEDTADYYCAAESPVYHLVTYDYWGQGTQVTVSS | high polyreactivity
18 | QVQLVDSCGGLVQAGGSLRLSCAASGSISYYYAMGWYRQAPGKERELVAAITRTGTTNYADSVKWRFTISRDNAKNTVFLQMNSLKPEDTAVYYCAKRSTGRLQSYNYWGQGTQVTVSS | low polyreactivity
19 | QVQLVDSGAGLVQAGGSLRISCAATGSTFPRYGMGWYRQAPGKERQMVAAISSGGRTNYADSVKGRFTISRDNAKNTVYLQMNSLKPEDTAVYYCAARIPYYFSYYFYSGMDYWGQGTQVTVSS | high polyreactivity
20 | QVQLVDSGAGLVQAGGSLRISCVPPDSTTQSKLGDRIHRRLGKKVTWLPVLTSRGVGSYYADSVKGRFTISRDNAKNTVYLQMNSLIPEDTAVYYCNARYEVFYRYDYWGQGTQVSVSS | low polyreactivity
21 | QVQLVDSGAGLVQAGGSLRLSCDASGSTFRGYAMGWYRQSPWKERELVAAITYISDSTYYADSVKGRFTISRDNAKNTVFLQMISLNPEDTAVYYCNAYYDGDWRYTSQVTGDLWGQGTQVTVSS | low polyreactivity
22 | QVQLVDSGGCLVQAGGSLRLSCDASGRISQNAMGWYRQAPGKERELVAAITFSGGSTYYADSVKGRFTISRDNAKNTVYLQMNSLKPEDTAVYYCNVRQYTDGLKYDYWGQGTQVTVSS | low polyreactivity

Row | Sequence | polyreactivity (PSR sort gate)
23 | QVQLVDSGGDLVKAGGSLRLSCDASGSTFRDYDMGWYRQAPGKERELVDAITGSGSSTYYADSVKGRFTISRDNAKNTVYLQMNSLKPEDTAVYYCAATWVVSYRVYRSYYWGQGTQVTVSS | low polyreactivity
24 | QVQLVDSGGGFVQAGGSLRLSCAASGSILAQKAMGWYRQAPGKERELVAAISWSGGRTYYADSVKGRFTISLDNAKNYVYLQMNCLKPEDTAVYYCNKVRRASTVHPDNYWGQGTQVTVSS | high polyreactivity
25 | QVQLVDSGGGLDQAGGSLRLSCASSGSSSNTMLWDGKDRRLGKKGSWSSTNYADSVKGRFTISRDNAKNTVYLQMNSLKPEDTAVYYCNAYHDYITEFNYWGQGTQVTVSS | low polyreactivity
26 | QVQLVDSGGGLVDAGGRLRLSCAASGRTFYAYPMGGYRQAPRTERELVAAITKRDGITFYADSVKGRFTISRDNAKNTVYLQMKSLKPEDTAVDYCDATGYVGGIYGHYPRGYWGQCTQVTVSS | high polyreactivity
27 | QVQLVDSGGGLVHAGGRLGLSREDYGSTFPYYSMGWYRQAPGKERELVAAISGGGGSTYYADSVKGRFTISRDNAKNTVYLQMNSLKPEDSAVYYCNAYKYISPGDYWGQGTQVTVSS | high polyreactivity
28 | QVQLVDSGGGLVKAGGSLRISCPASGITLKYYSMGWYRPSPGKERELVAAITRSGVGTYYADSVKGRFTISRDNAKNTVYLQMNSLKPEDTAVYYCAARGGWLQTKYDYWGQGTQVTVSS | high polyreactivity
29 | QVQLVDSGGGLVQAAGSLRLSCAASGSIFIFNTMGWYRQAPGKESELVASISSSGSTYYADSVKGRFTISRDNAKNTVYLQMKSLKPEDTAVYYCAATYYRPAYYGSYYYWGQGTQVTVSS | low polyreactivity
30 | QVQLVDSGGGLVQAGASLRLSCAASGSTFSSNVMGWYRQAPGKERELVAAITKTGGLTYYADSVKGRFTISRDNAKNTVYLNMNSLKPEDTSVYYCAAKSKRRGTTSVYYYWGQGTQVTVSS | high polyreactivity
31 | QVQLVDSGGGLVQAGGILRLSCASSGITFPGYDMGWYRQAPGKERDLVARISRSGGSTYYADSVKGRFTISRDNAKNTVYLQMNSLKPEETAVYYCAAGAYRSGGYRFDYWGQGTQVTVSS | low polyreactivity
32 | QVQLVDSGGGLVQAGGNLRLSCAPSGYTFGKYAMGWYRQAPGKERELVAGISSRGGSTYYADSVKGRFTISRDNAKNTVYFQMNSLKPEDTAVYYCAAVAYTGGPRKLGFYYWGQGTQVTVSS | high polyreactivity
33 | QVQLVDSGGGLVQAGGRLRLSCAASGLIFSYYARGRYRQGPRKERELVPAISSGGRTSYADSVKGRFTISRDNEKNTVYLKMNSVKPEASAVYYCAAYPVYNRPGDYWGQGTQVTVSS | high polyreactivity
34 | QVQLVDSGGGLVQAGGRLRLSRAASGSIFRRYPMGWYRQAPGKERELVAAISRNSGRTYYADSVKGRFTISRDNAKITDYLQMNSLKPEDTAVYYCNADTSLAANGKFDYWGQGTQGTVSS | high polyreactivity
35 | QVQLVDSGGGLVQAGGSISLSCAPSGFTIVGNAMGWYRLAPGKERELVAAISSGDDTNDADSVKGRFTISRDNAKNTVYLQMYSLKPEDTAVYYCAAAYYYYVSGWFDYWGQGTQVTVSS | low polyreactivity
36 | QVQLVDSGGGLVQAGGSLRIIRAASGSISGYNAMGWYRQAPGKERELVAAIYRSDGKDYADSVKGRFTISRDNAKNTVYLQMNSMIPEDTAVYYCIAVKWSVVGYVLGFYRDDYWGQGTQVTVSS | low polyreactivity
37 | QVQLVDSGGGLVQAGGSLRISCAASGSTFSINTMGTYRQAPGKERELVAAITTRGSSTYYADSVKGRFTISRDNAKNTVYLKMNSLKPEDTAVYYFNAPYRVTGGRYRWYDYWGQATQVTVSS | high polyreactivity
38 | QVQLVDSGGGLVQAGGSLRISCPASGRIIDLNARGWYRQAPGKERELVAAISYSGGRTFYADSVKGRFTISRDNAKNTVDLQMISLKPEVTAVYYCNVRRGDRFVRHDYWGQGSQVTVSS | low polyreactivity
39 | QVQLVDSGGGLVQAGGSLRLICAASGITFYYYAMGWYRQAPGKERELVAAISSRGGSTYYADSVKGRFTISRDNAKNTVYLQMNSLKPEDTAVYYWAALYGVSEEDDYWGQGTQVTVSS | high polyreactivity
40 | QVQLVDSGGGLVQAGGSLRLICAASGRTIDNYAMGWYRQAPGKERELVAVISRSGDRRYYPDSEKGRFTISRDNAKNTVYLPMKSLKPEDTAVYYCNAVYGRSIYDGLFYTYDYWGQCTQVTVSS | high polyreactivity
41 | QVQLVDSGGGLVQAGGSLRLICAASGSIFGKNAMGWYRQAPGKERELVAAISKRGGTTYYADSVKGRFTISRDNAKNTFYLLMNSLKPEDTAVYYCAAYYYVHRSSHYLSPYDFWGQVTQVTVSS | high polyreactivity
42 | QVQLVDSGGGLVQAGGSLRLRCAASGITYSYYTKGWYRQAPGKERDLVAGITRSGSTYYADSVKGRFTISRDNAYNTVYLQMNSLKPEDTAVYYCNARARGAYNRPNYPRYYYWGQGTQVTVSS | high polyreactivity
43 | QVQLVDSGGGLVQAGGSLRLRCAASGRNFGTNAMGWYRPAPGKERELVATITRGGGNTYYADSVKGRFTISRDNAKNTVYLQMNSLKPEDTAVYYCAAGVIFYVGTRVYAYDYWGQGTQLTVSS | low polyreactivity
